Assay results reported in patent US20180036441A1 (Dana-Farber, published 2018).

Experiments:
[1] = biological target: T1, MUC1 on HCT116/MUC1 cells (UniProt P15941 24-1255, limits assumed); assay: FACS titration, HCT116/MUC1 cells, antibody at 0.244 nM
T1 construct: whole, on cells; also called MUC1 overexpressed cell line
Experimental: (§1) To assess cell binding, 2×10⁵ HCT116/MUC1 cells per well were washed with PBS twice and incubated in 200 μl of serial dilutions of chimeric or humanized antibodies for 1 hour at room temperature. After washing 3 times with PBS, secondary antibody (2 μg/ml Alexa Flour®488 goat anti-human IgG) was added to cells and incubated for 30 minutes at room temperature. After washing with PBS, cells were analyzed by using FACSCalibur (BD Bioscience, San Jose, Calif.) and Flowjo software.

[2] = biological target: T1, MUC1 on HCT116/MUC1 cells; assay: FACS titration, HCT116/MUC1 cells, antibody at 3.906 nM
Experimental: as §1

[3] = biological target: T1, MUC1 on HCT116/MUC1 cells; assay: FACS titration, HCT116/MUC1 cells, antibody at 7.812 nM
Experimental: as §1

[4] = biological target: T1, MUC1 on HCT116/MUC1 cells; assay: FACS titration, HCT116/MUC1 cells, antibody at 62.5 nM
Experimental: as §1

[5] = biological target: T1, MUC1 on HCT116/MUC1 cells; assay: FACS titration, HCT116/MUC1 cells, antibody at 15.625 nM
Experimental: as §1

[6] = biological target: T1, MUC1 on HCT116/MUC1 cells; assay: FACS titration, HCT116/MUC1 cells, antibody at 0.488 nM
Experimental: as §1

[7] = biological target: T1, MUC1 on HCT116/MUC1 cells; assay: FACS titration, HCT116/MUC1 cells, antibody at 250 nM
Experimental: as §1

[8] = biological target: T1, MUC1 on HCT116/MUC1 cells; assay: FACS titration, HCT116/MUC1 cells, antibody at 500 nM
Experimental: as §1

MUC1-SEA-His protein = biological target: T2, MUC1-SEA-His protein (UniProt P15941 1039-1148, limits assumed); assay: SPR Biacore T200, antibody captured, antigen as analyte
T2 construct: domain: SEA; Recombinant antigen used for ELISA coating and as Biacore analyte; also called MUC-SEA-His; antigen protein; not shown: His tag
T2 sequence (looked up): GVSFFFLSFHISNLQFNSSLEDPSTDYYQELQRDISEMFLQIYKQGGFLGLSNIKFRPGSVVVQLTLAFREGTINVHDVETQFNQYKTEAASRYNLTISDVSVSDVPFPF
Experimental: Antibody affinity was determined using a Surface Plasmon Resonance (SPR) biosensor, Biacore T200 (GE Healthcare). Antibody was immobilized on the sensor chip through Fc capture method. Antigen protein was used as the analyte. The data of dissociation (kd) and association (ka) rate constants were obtained using Biacore T200 evaluation software. The apparent equilibrium dissociation constants (KD) were calculated from the ratio of kd over ka. For affinity ranking, twenty-five humanized antibodies plus chimericantibody were injected and captured on sensor chip individually. The antibodies were ranked based on their dissociation rates (kd).

[9] = biological target: T1, MUC1 on HCT116/MUC1 cells; assay: FACS titration, HCT116/MUC1 cells, antibody at 31.25 nM
Experimental: as §1

[10] = biological target: T1, MUC1 on HCT116/MUC1 cells; assay: FACS titration, HCT116/MUC1 cells, antibody at 1.953 nM
Experimental: as §1

[11] = biological target: T1, MUC1 on HCT116/MUC1 cells; assay: FACS titration on HCT116/MUC1 cells
Experimental: as §1

[12] = biological target: T1, MUC1 on HCT116/MUC1 cells; assay: FACS titration, HCT116/MUC1 cells, antibody at 0.977 nM
Experimental: as §1

[13] = biological target: T1, MUC1 on HCT116/MUC1 cells; assay: FACS titration, HCT116/MUC1 cells, antibody at 125 nM
Experimental: as §1

T1 sequence (P15941 24-1255 limits assumed): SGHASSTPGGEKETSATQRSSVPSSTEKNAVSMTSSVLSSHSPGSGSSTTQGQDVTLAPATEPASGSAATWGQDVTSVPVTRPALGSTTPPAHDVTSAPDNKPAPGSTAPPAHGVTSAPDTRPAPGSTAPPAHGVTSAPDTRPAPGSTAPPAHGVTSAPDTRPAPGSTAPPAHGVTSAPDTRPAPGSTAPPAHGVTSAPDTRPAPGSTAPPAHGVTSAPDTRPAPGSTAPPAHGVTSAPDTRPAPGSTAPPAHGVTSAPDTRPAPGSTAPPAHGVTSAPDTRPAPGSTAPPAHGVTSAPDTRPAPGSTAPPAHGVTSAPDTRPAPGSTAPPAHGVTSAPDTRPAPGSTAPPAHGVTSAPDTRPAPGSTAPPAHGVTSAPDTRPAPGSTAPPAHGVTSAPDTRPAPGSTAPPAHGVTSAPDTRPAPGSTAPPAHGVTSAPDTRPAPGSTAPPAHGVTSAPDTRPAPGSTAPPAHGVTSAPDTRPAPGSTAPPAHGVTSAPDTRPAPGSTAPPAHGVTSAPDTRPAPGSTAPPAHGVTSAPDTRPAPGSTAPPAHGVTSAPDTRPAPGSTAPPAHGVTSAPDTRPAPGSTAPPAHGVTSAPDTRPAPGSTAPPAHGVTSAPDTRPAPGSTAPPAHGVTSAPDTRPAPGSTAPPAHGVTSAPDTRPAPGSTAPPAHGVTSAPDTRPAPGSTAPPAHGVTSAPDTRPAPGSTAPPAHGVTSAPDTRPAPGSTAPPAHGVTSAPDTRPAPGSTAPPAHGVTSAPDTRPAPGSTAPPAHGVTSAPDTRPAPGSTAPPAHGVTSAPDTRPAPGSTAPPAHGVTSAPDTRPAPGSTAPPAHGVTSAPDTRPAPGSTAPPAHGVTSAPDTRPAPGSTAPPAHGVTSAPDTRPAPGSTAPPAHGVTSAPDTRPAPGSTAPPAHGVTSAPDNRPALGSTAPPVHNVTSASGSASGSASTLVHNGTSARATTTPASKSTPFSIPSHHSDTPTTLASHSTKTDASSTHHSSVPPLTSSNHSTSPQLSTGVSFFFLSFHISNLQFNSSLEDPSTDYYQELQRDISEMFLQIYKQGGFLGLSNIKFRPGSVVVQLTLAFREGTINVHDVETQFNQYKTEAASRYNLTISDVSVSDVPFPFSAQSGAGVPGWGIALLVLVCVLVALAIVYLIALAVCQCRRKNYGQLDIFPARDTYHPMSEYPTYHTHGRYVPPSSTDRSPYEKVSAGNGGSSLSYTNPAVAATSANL

B1: VH5 + VL1 (antibody, V domains shown)
VH: EVQLVQSGAEVKKPGESLKISCKGSGYAFSNFWMNWVRQMPGKGLEWMGQIYPGDGDTNYNGKFKGQVTISADKSISTAYLQWSSLKASDTAMYYCARSYYRSAWFAYWGQGTLVTVSL
VL: EIVLTQSPDFQSVTPKEKVTITCRASQSIGTSIHWYQQKPDQSPKLLIKYASESISGVPSRFSGSGSGTDFTLTINSLEAEDAATYYCQQSNNWPLTFGQGTKVEIK
notes: Humanized IgG expressed in HEK293; also called humanized antibody VH5+VL1
geometric mean [1]: 2.67 | geometric mean [2]: 20 | geometric mean [3]: 29.7 | geometric mean [4]: 291 | geometric mean [5]: 91.2 | geometric mean [6]: 2.93 | geometric mean [7]: 327 | geometric mean [8]: 316 | koff (MUC1-SEA-His protein): 0.00192 s⁻¹ | geometric mean [9]: 219 | geometric mean [10]: 7.02 | EC50 [11]: 23.6 nM | geometric mean [12]: 4.25 | geometric mean [13]: 326

B2: VH3 + VL3 (antibody, V domains shown)
VH: QVQLVQSGAEVKKPGASVKVSCKASGYAFSNFWMNWVRQAPGQGLEWMGQIYPGDGDTNYNGKFKGRVTMTRDTSISTAYMELSRLRSDDTAVYYCARSYYRSAWFAYWGQGTLVTVSS
VL: EIVLTQSPATLSLSPGERATLSCRASQSIGTSIHWYQQKPGQAPRLLIYYASESISGIPARFSGSGSGTDFTLTISSLEPEDFAVYYCQQSNNWPLTFGGGTKVEIK
notes: Humanized IgG expressed in HEK293; also called humanized antibody VH3+VL3
geometric mean [1]: 2.61 | geometric mean [2]: 5.77 | geometric mean [3]: 7.91 | geometric mean [4]: 134 | geometric mean [5]: 27.3 | geometric mean [6]: 2.65 | geometric mean [7]: 154 | geometric mean [8]: 148 | koff (MUC1-SEA-His protein): 0.0152 s⁻¹ | geometric mean [9]: 77.2 | geometric mean [10]: 3.64 | EC50 [11]: 30.9 nM | geometric mean [12]: 2.95 | geometric mean [13]: 151
